{"source": "patent US20130209454A1", "about": "(CALIFORNIA INSTITUTE OF TECHNOLOGY, published 2013)", "binders": {"B1": {"name": "NIH45-46 IgG (antibody, V domains shown)", "VH": "QVRLSQSGGQMKKPGESMRLSCRASGYEFLNCPINWIRLAPGRRPEWMGWLKPRGGAVNYARKFQGRVTMTRDVYSDTAFLELRSLTSDDTAVYFCTRGKYCTARDYYNWDFEHWGRGAPVTVSS", "VL": "EIVLTQSPATLSLSPGETAIISCRTSQSGSLAWYQQRPGQAPRLVIYSGSTRAAGIPDRFSGSRWGADYNLSISNLESGDFGVYYCQQYEFFGQGTKVQVDI"}}, "assay_in_all_cases": "cell-based or functional assay", "key": {"[1]": {"target": "HIV-1 strain ZM53M.PB12 envelope (gp120) (HIV-1)"}, "[2]": {"target": "HIV-1 strain HIV-16845-2.22 envelope (gp120) (HIV-1)"}, "[3]": {"target": "HIV-1 strain Ce0393_C3 envelope (gp120) (HIV-1)"}, "[4]": {"target": "HIV-1 strain PVO.4 envelope (gp120) (HIV-1)"}, "[5]": {"target": "HIV-1 strain Q461.e2 envelope (gp120) (HIV-1)"}, "[6]": {"target": "HIV-1 strain ZM214M.PL15 envelope (gp120) (HIV-1)"}, "[7]": {"target": "HIV-1 strain ZM233M.PB6 envelope (gp120) (HIV-1)"}, "[8]": {"target": "HIV-1 strain X1193_c1 envelope (gp120) (HIV-1)"}, "[9]": {"target": "HIV-1 strain WEAU_d15_410_787 envelope (gp120) (HIV-1)"}, "[10]": {"target": "HIV-1 strain ZM249M.PL1 envelope (gp120) (HIV-1)"}, "[11]": {"target": "HIV-1 strain C1080.c03 envelope (gp120) (HIV-1)"}, "[12]": {"target": "HIV-1 strain R2184.04 envelope (gp120) (HIV-1)"}, "[13]": {"target": "HIV-1 strain CNE30 envelope (gp120) (HIV-1)"}, "[14]": {"target": "HIV-1 strain 928-28 envelope (gp120) (HIV-1)"}, "[15]": {"target": "HIV-1 strain 703357.C02 envelope (gp120) (HIV-1)"}, "[16]": {"target": "HIV-1 strain R1166.c01 envelope (gp120) (HIV-1)"}, "[17]": {"target": "HIV-1 strain X1254_c3 envelope (gp120) (HIV-1)"}, "[18]": {"target": "HIV-1 strain CAAN5342.A2 envelope (gp120) (HIV-1)"}, "[19]": {"target": "HIV-1 strain 3718.v3.c11 envelope (gp120) (HIV-1)"}, "[20]": {"target": "HIV-1 strain 6480.v4.c25 envelope (gp120) (HIV-1)"}, "[21]": {"target": "HIV-1 strain X2131_C1_B5 envelope (gp120) (HIV-1)"}, "[22]": {"target": "HIV-1 strain Q842.d12 envelope (gp120) (HIV-1)"}, "[23]": {"target": "HIV-1 strain ZM135M.PL10a envelope (gp120) (HIV-1)"}, "[24]": {"target": "HIV-1 strain ZM247v1(Rev-) envelope (gp120) (HIV-1)"}, "[25]": {"target": "HIV-1 strain AC10.0.29 envelope (gp120) (HIV-1)"}, "[26]": {"target": "HIV-1 strain TRO.11 envelope (gp120) (HIV-1)"}, "[27]": {"target": "HIV-1 strain 1006_11_C3_1601 envelope (gp120) (HIV-1)"}, "[28]": {"target": "HIV-1 strain CAP45.2.00.G3 envelope (gp120) (HIV-1)"}, "[29]": {"target": "HIV-1 strain 231966.c02 envelope (gp120) (HIV-1)"}, "[30]": {"target": "HIV-1 strain CNE58 envelope (gp120) (HIV-1)"}, "[31]": {"target": "HIV-1 strain Q769.d22 envelope (gp120) (HIV-1)"}, "[32]": {"target": "HIV-1 strain 1054_07_TC4_1499 envelope (gp120) (HIV-1)"}, "[33]": {"target": "HIV-1 strain 1056_10_TA11_1826 envelope (gp120) (HIV-1)"}, "[34]": {"target": "HIV-1 strain T278-50 envelope (gp120) (HIV-1)"}, "[35]": {"target": "HIV-1 strain Ce703010054_2A2 envelope (gp120) (HIV-1)"}, "[36]": {"target": "HIV-1 strain C3347.c11 envelope (gp120) (HIV-1)"}, "[37]": {"target": "HIV-1 strain WITO4160.33 envelope (gp120) (HIV-1)"}, "[38]": {"target": "HIV-1 strain T255-34 envelope (gp120) (HIV-1)"}, "[39]": {"target": "HIV-1 strain REJO4541.67 envelope (gp120) (HIV-1)"}, "[40]": {"target": "HIV-1 strain CNE17 envelope (gp120) (HIV-1)"}, "[41]": {"target": "HIV-1 strain Q23.17 envelope (gp120) (HIV-1)"}}}
{"binder": "B1", "values": [{"measurement": "neutralization IC80", "setting": "[1]", "value": 0.61, "unit": "µg/mL"}, {"measurement": "neutralization IC80", "setting": "[2]", "value": 22.6, "unit": "µg/mL"}, {"measurement": "neutralization IC80", "setting": "[3]", "value": 0.93, "unit": "µg/mL"}, {"measurement": "neutralization IC80", "setting": "[4]", "value": 0.41, "unit": "µg/mL"}, {"measurement": "neutralization IC80", "setting": "[5]", "value": 0.291, "unit": "µg/mL"}, {"measurement": "neutralization IC80", "setting": "[6]", "value": 0.59, "unit": "µg/mL"}, {"measurement": "neutralization IC80", "setting": "[7]", "value": 14.2, "unit": "µg/mL"}, {"measurement": "neutralization IC80", "setting": "[8]", "value": 0.064, "unit": "µg/mL"}, {"measurement": "neutralization IC80", "setting": "[9]", "value": 0.015, "unit": "µg/mL"}, {"measurement": "neutralization IC80", "setting": "[10]", "value": 0.053, "unit": "µg/mL"}, {"measurement": "neutralization IC80", "setting": "[11]", "value": 11.6, "unit": "µg/mL"}, {"measurement": "neutralization IC80", "setting": "[12]", "value": 0.127, "unit": "µg/mL"}, {"measurement": "neutralization IC80", "setting": "[13]", "value": 1.07, "unit": "µg/mL"}, {"measurement": "neutralization IC80", "setting": "[14]", "value": 0.64, "unit": "µg/mL"}, {"measurement": "neutralization IC80", "setting": "[15]", "value": "> 50", "unit": "µg/mL"}, {"measurement": "neutralization IC80", "setting": "[16]", "value": 1.21, "unit": "µg/mL"}, {"measurement": "neutralization IC80", "setting": "[17]", "value": 0.107, "unit": "µg/mL"}, {"measurement": "neutralization IC80", "setting": "[18]", "value": 0.4, "unit": "µg/mL"}, {"measurement": "neutralization IC80", "setting": "[19]", "value": "> 50", "unit": "µg/mL"}, {"measurement": "neutralization IC80", "setting": "[20]", "value": 0.1, "unit": "µg/mL"}, {"measurement": "neutralization IC80", "setting": "[21]", "value": 0.88, "unit": "µg/mL"}, {"measurement": "neutralization IC80", "setting": "[22]", "value": 0.073, "unit": "µg/mL"}, {"measurement": "neutralization IC80", "setting": "[23]", "value": 2.79, "unit": "µg/mL"}, {"measurement": "neutralization IC80", "setting": "[24]", "value": 24.5, "unit": "µg/mL"}, {"measurement": "neutralization IC80", "setting": "[25]", "value": 1.93, "unit": "µg/mL"}, {"measurement": "neutralization IC80", "setting": "[26]", "value": 7.49, "unit": "µg/mL"}, {"measurement": "neutralization IC80", "setting": "[27]", "value": 0.196, "unit": "µg/mL"}, {"measurement": "neutralization IC80", "setting": "[28]", "value": "> 50", "unit": "µg/mL"}, {"measurement": "neutralization IC80", "setting": "[29]", "value": 9.64, "unit": "µg/mL"}, {"measurement": "neutralization IC80", "setting": "[30]", "value": 2.08, "unit": "µg/mL"}, {"measurement": "neutralization IC80", "setting": "[31]", "value": 0.033, "unit": "µg/mL"}, {"measurement": "neutralization IC80", "setting": "[32]", "value": 0.404, "unit": "µg/mL"}, {"measurement": "neutralization IC80", "setting": "[33]", "value": 0.447, "unit": "µg/mL"}, {"measurement": "neutralization IC80", "setting": "[34]", "value": "> 50", "unit": "µg/mL"}, {"measurement": "neutralization IC80", "setting": "[35]", "value": 0.538, "unit": "µg/mL"}, {"measurement": "neutralization IC80", "setting": "[36]", "value": 0.094, "unit": "µg/mL"}, {"measurement": "neutralization IC80", "setting": "[37]", "value": 0.26, "unit": "µg/mL"}, {"measurement": "neutralization IC80", "setting": "[38]", "value": 3.44, "unit": "µg/mL"}, {"measurement": "neutralization IC80", "setting": "[39]", "value": 0.035, "unit": "µg/mL"}, {"measurement": "neutralization IC80", "setting": "[40]", "value": 0.734, "unit": "µg/mL"}, {"measurement": "neutralization IC80", "setting": "[41]", "value": 0.5, "unit": "µg/mL"}]}
